From US20240190987A1, “Engineered EpCam Binding Antibodies” (TigaTX, priority 2021, published 2024)

Legend:
[1] = Differential scanning fluorimetry (DSF) melting temperature; type: physicochemical
Method: DSF was performed on a LC480 Lightcycler Instrument II (Roche). Purified recombinant protein was diluted to 5 μM in DSF buffer (PBS, pH 7.4, Sypro Orange 5×) with small molecule (10 μM VTX) or vehicle (0.05% DMSO) and then heated with a temperature gradient (0.01° C./s) from 25 to 95° C. Data were continuously acquired at ˜465 nm (excitation) and ˜580 nm (emission). Data was analyzed to generate first derivative curves in which the curve maximum was reported as the melting temperature of the protein.

[2] = system: human PBMCs; experiment: Surface staining of human PBMCs by flow cytometry; type: cell-based; settings: TCRab+, CD4+ and CD8+ subsets
Method: (§1) FIG. 32 depicts Ab1070 binding to human and cynomolgus macaque PBMCs. Binding was measured by flow cytometry using a secondary fluorescent antibody (IgG-PE). T-cell subsets were identified using additional fluorescent antibodies against TCRab, CD4 and CD8 and gated prior to quantifying the median fluorescence intensity (MFI) of the IgG-PE channel. […] The assay was performed with up to 10 μM antibodies (titrated as indicated).
(§2) Peripheral blood mononuclear cells (PBMCs) from healthy cynomolgus macaques (Chinese origin) were obtained commercially (iQ Biosciences, Berkeley, CA). Peripheral blood mononuclear cells (PBMCs) from healthy human donors were isolated from leukapheresis packs (leukopaks) from deidentified healthy adult donors (StemCell Technologies, Vancouver, BC). Human PBMCs were isolated using the EasySep Direct Human PBMC Kit (StemCell Technologies) then cryopreserved in DMEM with 10% FBS and 10% DMSO. Frozen PBMC cryovials were thawed on the day of experiments and washed complete growth media (DMEM+10% FBS+1% penicillin/streptomycin). Cells were resuspended in growth media and transferred to a 96-well U-bottom plate at 55,000 cell/well. Human TruStain FcX (Fc Receptor Blocking Solution; Catalog number 422302; BioLegend, San Diego, CA) was added at a 1:20 final dilution of the manufacturer's stock and incubated for 10 minutes at room temperature in a volume of 25 μL. […]

[3] = system: cynomolgus macaque PBMCs; experiment: Surface staining of cyno PBMCs by flow cytometry; type: cell-based; settings: TCRab+, CD4+ and CD8+ subsets
Method: as §1, §2

[4] = Ab0640 pharmacokinetics in mice; type: in vivo; settings: 6.7 mg/kg single IV, C57BL/6 mice
Method: Plasma samples were collected at 30 min, 24 hr, 72 hr, and 168 hr and concentrations of the antibodies were determined by ELISA.
Female […] mice (age 10-12 weeks) were distributed into 2 groups (n=5 per group). Antibodies were diluted in sterile PBS and injected intravenously at 6.7 mg/kg. Blood (55 μL from the retroorbital sinus) was sampled serially at 4 time points (30 min, 1 day, 3 days, 7 days), processed to plasma, diluted 1:10 in 50% glycerol+PBS, then cryopreserved. Plasma concentrations were quantified using an anti-human IgG sandwich ELISA that was developed and qualified in-house. The capture antibody for the ELISA was goat anti-human IgG (Cat. No. 2049-01; Southern Biotech, Birmingham, AL) coated on 96-well Nunc-Immuno Maxisorp plates (Thermo Fisher Scientific) at […] for 1 hr at 37° C. The detection antibody was mouse anti-human IgG Fc-HRP (Cat. No. 9042-05; Southern Biotech, Birmingham, AL) at 1:32,000 dilution of the manufacturer stock. ELISA coating, blocking, wash, and TMB substrate buffers from BioLegend were used according to the manufacturer's instructions. Non-compartmental pharmacokinetic parameters were calculated using the PKNCA package for R (doi: 10.1007/s10928-015-9432-2).

[5] = system: HCT-116-NR target cells; experiment: Real-time TDCC by time-lapse microscopy; type: cell-based, human; settings: 10 nM antibodies, 250 nM indinavir, 5 μM quencher, 120 hours
Method: FIG. 42 depicts real-time measurement of TDCC in a co-culture assay for three exemplary T-LITE pairs. […] T-LITE antibodies were held constant at 10 nM with indinavir (250 nM) added to some wells, as indicated (“ON”). In some wells, a conventional TCE (Ab1007) was included as a positive control. In some wells, an anti-indinavir quencher antibody (5 μM) was added at various time points, as indicated (“OFF”). […] In some wells, no indinavir was added (“Always OFF”). Killing was interrupted by the addition of the quencher at earlier time points (“OFF at” 30 min, 24 h, 44 h, or 49 h). Killing occurred at levels similar to the no-quencher condition (“Always ON”) if the quencher was added at the latest time point (68 h). The assay was performed with human T-cells and HCT-116-NR target cells for 120 hours.
The kinetics of TDCC in a co-culture assay were measured using time-lapse microscopy (FIG. 42). […] To test how T-LITE-activated T-cells respond to the removal of indinavir, an “anti-indinavir quencher” was used. […]
Co-cultures of magnetically isolated human T-cells and target cells were prepared as described above for TDCC assays, with some modifications. […] The IncuCyte software was used to quantify Normalized target cell abundance (red object area per image, normalized to T=0 h).

[6] = UPLC-SEC retention time; type: physicochemical; settings: Table 13
Method: LS2B antibody clones derived from the phage display campaign were profiled by analytical UPLC-SEC using a Thermo Vanquish Flex HPLC with a MabPAC 4.6×150 mm SEC column equilibrated in 1×PBS-HCl at pH 7.0. Retention time of each clone was compared to Ab0254 to assess overall developability.
UPLC-SEC was performed on a Thermo Scientific Vanquish Flex UHPLC system. Protein was diluted to 1-5 μM in HBS buffer and then 1.5-10 μL of sample was injected onto a MabPAC 4.6×150 mm in 1×PBS-HCl at pH 7.0. Data were continuously acquired at ˜280 nm and processed on the Chromeleon 7 software (Thermo Scientific). For the low pH hold assay, prior to injection on the UHPLC, samples were held at pH 3.5 for 1 hour followed by neutralization. For the complex assembly assay, the MabPAC 4.6×150 mm column was pre-equilibrated with 1×PBS-HCl at pH 7.0 and 10 μM Indinavir.

B1: hSP34v68: humanized SP34 anti-CD3 clone v68, scFv-Fc (antibody)
heavy: EVQLVESGGGLVQPGGSLRLSCAASGFTFNTYAMNWVRQAPGKGLEWVARIRSKYNNYATYYADSVKGRFTISRDDSKSILYLQMNSLRAEDTAVYYCVRHGNFGNSYVSWFAYWGQGTLVTVSSGGGGSGGGGSGGGGSDIQVTQSPSSLSASVGDRVTITCRSSTGAVTTSNYANWVQQKPGKAFKGLIGGTNKLASGVPSRFSGSLSGDDATLTISSLQPEDFATYYCALWYSNLWVFGQGTKLEIKGGGGSDKTHTCPPCPAPEAAGGPSVFLFPPKPKDTLMISRTPEVTCVVVDVSHEDPEVKFNWYVDGVEVHNAKTKPREEQYNSTYRVVSVLTVLHQDWLNGKEYKCKVSNKALGAPIEKTISKAKGQPREPQVYTLPPSRDELTKNQVSLTCLVKGFYPSDIAVEWESNGQPENNYKTTPPVLDSDGSFFLYSKLTVDKSRWQQGNVFSCSVMHEALHNHYTQKSLSLSPGK
modifications: REGION 1..482: note = Ab0640 HC
notes: humanized SP34 anti-CD3 clone v68, scFv-Fc
[1]; DSF, hSP34v68 R1 variants (Table 23)
  TM (° C.): 60.7 °C
[2]
  binding to human PBMC T-cell subsets: Detectable and saturable binding
[3]
  binding to cyno PBMC T-cell subsets: Detectable and saturable binding
[4]
  half-life: 112 h

B2: Ab1007: conventional TCE positive control (antibody)
heavy 1: EVQLVQSGPGLVQPGGSVRISCAASGYTFTNYGMNWVKQAPGKGLEWMGWINTYTGESTYADSFKGRFTFSLDTSASAAYLQINSLRAEDTAVYYCARFAIKGDYWGQGTLLTVSSASTKGPSVFPLAPSSKSTSGGTAALGCLVKDYFPEPVTVSWNSGALTSGVHTFPAVLQSSGLYSLSSVVTVPSSSLGTQTYICNVNHKPSNTKVDKKVEPKSCDKTHTCPPCPAPEAAGGPSVFLFPPKPKDTLMISRTPEVTCVVVDVSHEDPEVKFNWYVDGVEVHNAKTKPREEQYNSTYRVVSVLTVLHQDWLNGKEYKCKVSNKALGAPIEKTISKAKGQPREPMVFDLPPSREEMTKNQVSLWCMVKGFYPSDIAVEWESNGQPENNYKTTPPVLDSDGSFFLYSKLTVDKSRWQQGNVFSCSVMHEALHNHYTQKSLSLSPGKHHHHHH
heavy 2: EVQLVESGGGLVQPGGSLRLSCAASGFTFNTYAMNWVRQAPGKGLEWVARIRSKYNNYATYYADSVKGRFTISRDDSKSILYLQMNSLRAEDTAVYYCVRHGNFGNSYVSWFAYWGQGTLVTVSSGGGGSGGGGSGGGGSDIQVTQSPSSLSASVGDRVTITCRSSTGAVTTSNYANWVQQKPGKAFKGLIGGTNKLAPGVPSRFSGSLSGDDATLTISSLQPEDFATYYCALWYSNLWVFGQGTKLEIKGGGGSDKTHTCPPCPAPEAAGGPSVFLFPPKPKDTLMISRTPEVTCVVVDVSHEDPEVKFNWYVDGVEVHNAKTKPREEQYNSTYRVVSVLTVLHQDWLNGKEYKCKVSNKALGAPIEKTISKAKGQPREPQVYTLPPIRELMTSNQVSLSCAVKGFYPSDIAVEWESNGQPENNYKTTPPVLDSDGSFFLVSKLTVDKSRWQQGNVFSCSVMHEALHNHYTQKSLSLSPGK
light: DIQMTQSPSSLSASVGDRVTITCRSTKSLLHSNGITYLYWYQQKPGKAPKLLIYQMSNLASGVPSRFSSSGSGTDFTLTISSLQPEDFATYYCAQNLEIPRTFGQGTKVELKRTVAAPSVFIFPPSDEQLKSGTASVVCLLNNFYPREAKVQWKVDNALQSGNSQESVTEQDSKDSTYSLSSTLTLSKADYEKHKVYACEVTHQGLSSPVTKSFNRGEC
modifications: REGION 1..452: note = Ab1007 Knob HC; REGION 1..482: note = Ab1007 Hole HC; REGION 1..219: note = Ab1007 Knob LC
notes: conventional TCE positive control
[5]
  real-time TDCC of HCT-116-NR target cells: depleted of target cells

B3: Ab0637: LS2B; HC: V29F+M100eL+M100hL on Ab0596; parent of R4b (antibody, V domains shown)
VH: EVQLVESGGGLVQPGGSLRLSCAASGFDFSSYSIHWVRQAPGKGLEWVASISPYYGSTYYADSVKGRFTISADTSKNTAYLQMNSLRAEDTAVYYCARYYEWYKYSLYLGSLGFDYWGQGTLVTVSS
VL: DIQMTQSPSSLSASVGDRVTITCRASQSVSSAVAWYQQKPGKAPKLLIYSASSLYSGVPSRFSGSRSGTDFTLTISSLQPEDFATYYCQQGGYSLITFGQGTKVEIK
[6]
  SEC RT: 17.205 min
[1]; Table 13
  TM (° C.): 78.3 °C
